Assay results from PMC2553570.
Where two headings read alike, the source gives them in different places.

What was measured:
Assay in all cases: EMSA
[1] = target: T1, Ku70DM/80TM (human, UniProt P12956;P13010 1-609;1-732, K357A;K358A;K233A;K238A;K239A)
[2] = target: Ku70/80DM (human, UniProt P12956;P13010 1-609;1-732, K239A;Ku80:K238A)
[3] = target: T2, Ku70/80TM (human, UniProt P12956;P13010 1-609;1-732, K238A;K239A;Ku80:K233A)
[4] = target: T3, Ku70DM/80DM (human, UniProt P12956;P13010 1-609;1-732, K357A;K358A;K238A;K239A)
[5] = target: T4, Ku70DM/80 (human, UniProt P12956;P13010 1-609;1-732, K358A;Ku70:K357A)
[6] = target: T5, Ku70/80 wild-type (human, UniProt P12956;P13010 1-609;1-732)
[7] = target: T1, Ku70DM/80TM; remark: listed apart in the source
[8] = target: T2, Ku70/80TM; remark: listed apart in the source
[9] = target: T3, Ku70DM/80DM; remark: listed apart in the source
[10] = target: T4, Ku70DM/80; remark: listed apart in the source
[11] = target: T5, Ku70/80 wild-type; remark: listed apart in the source

Measured: binding result

T4 sequence (P12956 whole entry K358A, chain 1 of 2): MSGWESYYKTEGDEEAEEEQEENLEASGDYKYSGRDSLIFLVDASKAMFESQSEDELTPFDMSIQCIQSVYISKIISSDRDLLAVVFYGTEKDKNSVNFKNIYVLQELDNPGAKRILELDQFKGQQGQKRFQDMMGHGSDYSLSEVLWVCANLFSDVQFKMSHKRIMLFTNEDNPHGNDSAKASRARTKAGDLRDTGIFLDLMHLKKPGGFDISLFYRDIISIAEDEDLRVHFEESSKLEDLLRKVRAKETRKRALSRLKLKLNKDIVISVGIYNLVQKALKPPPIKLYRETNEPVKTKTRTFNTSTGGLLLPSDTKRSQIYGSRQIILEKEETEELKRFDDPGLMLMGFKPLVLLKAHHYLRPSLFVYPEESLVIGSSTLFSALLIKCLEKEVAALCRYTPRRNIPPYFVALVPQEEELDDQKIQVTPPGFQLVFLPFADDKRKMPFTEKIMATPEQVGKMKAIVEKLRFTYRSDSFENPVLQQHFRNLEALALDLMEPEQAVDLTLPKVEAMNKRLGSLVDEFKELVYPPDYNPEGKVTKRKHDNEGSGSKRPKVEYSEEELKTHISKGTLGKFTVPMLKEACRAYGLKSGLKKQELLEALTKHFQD
T4 sequence (P13010 whole entry, stated change not applied, chain 2 of 2): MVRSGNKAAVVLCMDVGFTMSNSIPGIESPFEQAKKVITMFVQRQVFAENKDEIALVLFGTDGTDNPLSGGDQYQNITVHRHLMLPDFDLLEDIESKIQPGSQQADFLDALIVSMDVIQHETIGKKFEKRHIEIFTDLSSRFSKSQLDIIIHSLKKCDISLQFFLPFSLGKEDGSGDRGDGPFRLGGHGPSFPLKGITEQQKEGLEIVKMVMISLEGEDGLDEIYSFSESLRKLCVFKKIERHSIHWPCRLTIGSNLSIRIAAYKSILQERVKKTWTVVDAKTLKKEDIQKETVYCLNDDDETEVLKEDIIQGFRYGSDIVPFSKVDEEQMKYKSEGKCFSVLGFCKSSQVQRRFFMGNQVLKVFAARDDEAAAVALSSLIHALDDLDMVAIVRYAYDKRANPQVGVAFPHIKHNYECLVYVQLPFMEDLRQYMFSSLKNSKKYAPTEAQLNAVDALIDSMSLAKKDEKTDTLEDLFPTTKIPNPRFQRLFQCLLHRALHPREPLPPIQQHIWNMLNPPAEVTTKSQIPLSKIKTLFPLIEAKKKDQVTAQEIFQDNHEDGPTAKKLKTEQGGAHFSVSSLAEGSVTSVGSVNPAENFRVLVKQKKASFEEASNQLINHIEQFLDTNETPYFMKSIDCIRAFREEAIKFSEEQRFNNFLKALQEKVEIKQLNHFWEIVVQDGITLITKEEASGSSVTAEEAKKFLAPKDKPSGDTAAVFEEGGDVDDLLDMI
T3 sequence (P12956 whole entry K357A/K358A, chain 1 of 2): as the sequence (P12956 whole entry K358A, chain 1 of 2) above, with K357A counted along it
T3 sequence (P13010 whole entry K238A/K239A, chain 2 of 2): as the sequence (P13010 whole entry, stated change not applied, chain 2 of 2) above, with K238A, K239A counted along it
T1 sequence (P12956 whole entry K357A/K358A, chain 1 of 2): as the sequence (P12956 whole entry K358A, chain 1 of 2) above, with K357A counted along it
T1 sequence (P13010 whole entry K233A/K238A/K239A, chain 2 of 2): as the sequence (P13010 whole entry, stated change not applied, chain 2 of 2) above, with K233A, K238A, K239A counted along it
T5 sequence (P12956 whole entry, chain 1 of 2): as the sequence (P12956 whole entry K358A, chain 1 of 2) above, with A358K counted along it
T5 sequence (P13010 whole entry, chain 2 of 2): as the sequence (P13010 whole entry, stated change not applied, chain 2 of 2) above
T2 sequence (P12956 whole entry, stated change not applied, chain 1 of 2): as the sequence (P12956 whole entry K358A, chain 1 of 2) above, with A358K counted along it
T2 sequence (P13010 whole entry K238A/K239A, chain 2 of 2): as the sequence (P13010 whole entry, stated change not applied, chain 2 of 2) above, with K238A, K239A counted along it
Sequence of Ku70/80DM (P12956 whole entry, stated change not applied, chain 1 of 2): as the sequence (P12956 whole entry K358A, chain 1 of 2) above, with A358K counted along it
Sequence of Ku70/80DM (P13010 whole entry K239A, chain 2 of 2): as the sequence (P13010 whole entry, stated change not applied, chain 2 of 2) above, with K239A counted along it

B1: 48-bp duplex (two-Ku) (dsDNA)
DNA 1: CTGAGAAAACTGTGCGTCTTCGCGGCAATTGAGAGGCATTCCATTCAC
DNA 2: GTGAATGGAATGCCTCTCAATTGCCGCGAAGACGCACAGTTTTCTCAG
binds: [1] | [2] | [3] | [4] | [5] | [6]

B2: one-Ku duplex with unpaired region (dsDNA)
DNA 1: GTTTTTAGTTTATTGGGCGCG
DNA 2: CGCGCCCAGCTTTCCCAGCTAATAAACTAAAAAC
binds: [7] | [8] | [9] | [10] | [11]
